Reference: patent US5580958, “Polypeptides encoding transcriptional activators and uses thereof” (La Jolla Cancer Research Foundation)

Target: PU.1 beta-galactosidase fusion (lambda 25.1, Ly25.1) (Mus musculus, UniProt P17433 P17433:1-272)
Test: Southwestern blot with multimerized 33-mer; methylation interference protects three G in GAGGAA; lower affinity than PU-1
Settings: tags: beta-galactosidase fusion, partially purified on anti-beta-gal Sepharose; label: 32P
Experimental: Production of beta-Galactosidase Fusion Protein and Western and Southwestern Analyses Lysogens were prepared from the lambda 25.1 and lambda 24.1 clones as described (Sturm et al., 1988) and the fusion proteins partially purified using anti-beta-galactosidase antibody bound to Sepharose (5 Prime - 3 Prime, Inc., Paoli, Pa.), as described by the manufacturer. Western and Southwestern analyses were carried out as described (Staudt et al., 1988).
Bacterial extracts prepared from lambda-gt11 and lambda 25.1 lysogens were fractionated on a 7.5% SDS-polyacrylamide gel, transferred to nitrocellulose and probed with labeled multimerized 33-mer. Only the lane with the lambda 25.1 extract contained a protein able to bind the probe. […] The positive filter was subsequently treated with rabbit antiserum to beta-galactosidase and mouse anti-rabbit immunoglobulin horseradish peroxidase conjugate. […] The appearance of several bands of lower molecular size are probably the result of degradation of the 150 kDa species. […] Some breakdown of the beta-galactosidase occurred in this sample resulting in a band at about 69 kDa.

B1: MHC class II I-A beta 33-mer (tetramer probe) (dsDNA)
DNA 1: GATCCGTCCCAAGTGAGGAACCAATCAGCATTG
DNA 2: CAATGCTGATTGGTTCCTCACTTGGGACGGATC
- binding result: binds
